In paper PMC9482650, “Quantitative fragmentomics allow affinity mapping of interactomes” (Nature Communications, 2022):

T1: PDZRN3_1, Q9UPQ7
T1 sequence (Q9UPQ7 244-349, limits assumed, looked up): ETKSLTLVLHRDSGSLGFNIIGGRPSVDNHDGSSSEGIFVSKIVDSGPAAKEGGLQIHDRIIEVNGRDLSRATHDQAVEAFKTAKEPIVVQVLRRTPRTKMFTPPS

T2: LNX2_2, Q8N448
T2 sequence (Q8N448 334-432, limits assumed, looked up): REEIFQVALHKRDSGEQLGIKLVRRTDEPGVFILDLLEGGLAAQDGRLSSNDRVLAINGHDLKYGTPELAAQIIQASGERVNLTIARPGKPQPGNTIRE

T3: HTRA4, P83105
T3 sequence (P83105 378-476, limits assumed, looked up): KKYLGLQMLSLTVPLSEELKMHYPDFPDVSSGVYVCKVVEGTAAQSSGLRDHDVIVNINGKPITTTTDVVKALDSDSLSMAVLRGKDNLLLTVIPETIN

T4: ARHGAP21, Q5T5U3
T4 sequence (Q5T5U3 45-169, limits assumed, looked up): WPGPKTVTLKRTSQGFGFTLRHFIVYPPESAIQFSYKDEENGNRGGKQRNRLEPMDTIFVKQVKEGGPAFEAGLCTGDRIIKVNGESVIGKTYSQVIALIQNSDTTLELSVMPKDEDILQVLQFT

T5: APBA2_2, Q99767
T5 sequence (Q99767 654-744, limits assumed, looked up): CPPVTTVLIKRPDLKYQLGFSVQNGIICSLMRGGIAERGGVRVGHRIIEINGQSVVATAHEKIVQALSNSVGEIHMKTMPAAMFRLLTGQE

T6: LIN7C, Q9NUP9
T6 sequence (Q9NUP9 88-185, limits assumed, looked up): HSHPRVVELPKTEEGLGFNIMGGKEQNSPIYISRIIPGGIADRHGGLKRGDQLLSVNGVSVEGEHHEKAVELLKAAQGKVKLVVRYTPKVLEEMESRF

B1: RSBN1, Q5VWQ0 (peptide)
chain: NLQEHSTTSV

target: T1, PDZRN3_1, Q9UPQ7; assay: holdup assay; set-up: key: below the threshold = too weak to quantify, mostly under pKd 3.1 to 4; conditions: plain residues with an end cap or a label only (N-terminal biotin on a linker: ado-ado)

| Binder | pKd |
| --- | --- |
| B1 | below the threshold |

target: Inadl_8, Q8NI35; assay: holdup assay; set-up: key: below the threshold = too weak to quantify, mostly under pKd 3.1 to 4; conditions: plain residues with an end cap or a label only (N-terminal biotin on a linker: ado-ado)
Sequence (Q8NI35 1425-1530): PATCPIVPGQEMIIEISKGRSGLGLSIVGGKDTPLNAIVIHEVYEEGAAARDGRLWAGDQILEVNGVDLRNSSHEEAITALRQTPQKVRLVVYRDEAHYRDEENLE

| Binder | pKd |
| --- | --- |
| B1 | 3.81 |

target: MAGI1_1, Q96QZ7; assay: holdup assay; set-up: key: below the threshold = too weak to quantify, mostly under pKd 3.1 to 4; conditions: plain residues with an end cap or a label only (N-terminal biotin on a linker: ado-ado)
Sequence (Q96QZ7 1-106): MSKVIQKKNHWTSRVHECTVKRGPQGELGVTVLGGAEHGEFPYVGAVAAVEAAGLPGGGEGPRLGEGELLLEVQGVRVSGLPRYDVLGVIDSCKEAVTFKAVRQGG

| Binder | pKd |
| --- | --- |
| B1 | below the threshold |

target: GOPC, Q9HD26; assay: holdup assay; set-up: key: below the threshold = too weak to quantify, mostly under pKd 3.1 to 4; conditions: plain residues with an end cap or a label only (N-terminal biotin on a linker: ado-ado)

| Binder | pKd |
| --- | --- |
| B1 | 3.57 |

target: Inadl_5, Q8NI35; assay: holdup assay; set-up: key: below the threshold = too weak to quantify, mostly under pKd 3.1 to 4; conditions: plain residues with an end cap or a label only (N-terminal biotin on a linker: ado-ado)
Sequence (Q8NI35 673-780): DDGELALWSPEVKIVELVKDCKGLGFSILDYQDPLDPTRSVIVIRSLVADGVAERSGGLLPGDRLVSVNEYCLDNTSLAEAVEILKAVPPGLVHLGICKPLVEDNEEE

| Binder | pKd |
| --- | --- |
| B1 | below the threshold |

target: MAGI2_3, Q86UL8; assay: holdup assay; set-up: key: below the threshold = too weak to quantify, mostly under pKd 3.1 to 4; conditions: plain residues with an end cap or a label only (N-terminal biotin on a linker: ado-ado)
Sequence (Q86UL8 600-682): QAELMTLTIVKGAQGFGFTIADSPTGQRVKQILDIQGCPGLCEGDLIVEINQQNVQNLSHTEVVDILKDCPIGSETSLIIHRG

| Binder | pKd |
| --- | --- |
| B1 | below the threshold |

target: LDB3, O75112; assay: holdup assay; set-up: key: below the threshold = too weak to quantify, mostly under pKd 3.1 to 4; conditions: plain residues with an end cap or a label only (N-terminal biotin on a linker: ado-ado)
Sequence (O75112 1-94): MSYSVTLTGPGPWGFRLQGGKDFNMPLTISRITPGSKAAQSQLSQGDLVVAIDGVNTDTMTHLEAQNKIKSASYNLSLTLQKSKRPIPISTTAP

| Binder | pKd |
| --- | --- |
| B1 | below the threshold |

target: GRIP2_4, Q9C0E4; assay: holdup assay; set-up: key: below the threshold = too weak to quantify, mostly under pKd 3.1 to 4; conditions: plain residues with an end cap or a label only (N-terminal biotin on a linker: ado-ado)
Sequence (Q9C0E4 446-548): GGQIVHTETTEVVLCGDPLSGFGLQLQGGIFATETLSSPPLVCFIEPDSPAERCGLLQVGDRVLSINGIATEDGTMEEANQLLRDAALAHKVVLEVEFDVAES

| Binder | pKd |
| --- | --- |
| B1 | below the threshold |

target: DLG4_3, P78352; assay: holdup assay; set-up: key: below the threshold = too weak to quantify, mostly under pKd 3.1 to 4; conditions: plain residues with an end cap or a label only (N-terminal biotin on a linker: ado-ado)
Sequence (P78352 306-403): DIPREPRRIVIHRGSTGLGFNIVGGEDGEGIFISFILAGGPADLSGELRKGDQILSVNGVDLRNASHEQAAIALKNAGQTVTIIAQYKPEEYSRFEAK

| Binder | pKd |
| --- | --- |
| B1 | 3.59 |

target: HTRA1, Q92743; assay: holdup assay; set-up: key: below the threshold = too weak to quantify, mostly under pKd 3.1 to 4; conditions: plain residues with an end cap or a label only (N-terminal biotin on a linker: ado-ado)
Sequence (Q92743 360-477): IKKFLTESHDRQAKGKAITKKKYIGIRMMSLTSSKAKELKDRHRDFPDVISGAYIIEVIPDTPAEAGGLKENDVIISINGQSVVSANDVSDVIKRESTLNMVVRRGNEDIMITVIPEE

| Binder | pKd |
| --- | --- |
| B1 | 3.74 |

target: FRMPD3, Q5JV73; assay: holdup assay; set-up: key: below the threshold = too weak to quantify, mostly under pKd 3.1 to 4; conditions: plain residues with an end cap or a label only (N-terminal biotin on a linker: ado-ado)
Sequence (Q5JV73 12-100): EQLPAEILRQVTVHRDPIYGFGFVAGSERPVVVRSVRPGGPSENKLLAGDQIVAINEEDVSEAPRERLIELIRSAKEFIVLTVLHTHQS

| Binder | pKd |
| --- | --- |
| B1 | below the threshold |

target: GORASP1, Q9BQQ3; assay: holdup assay; set-up: key: below the threshold = too weak to quantify, mostly under pKd 3.1 to 4; conditions: plain residues with an end cap or a label only (N-terminal biotin on a linker: ado-ado)
Sequence (Q9BQQ3 1-208): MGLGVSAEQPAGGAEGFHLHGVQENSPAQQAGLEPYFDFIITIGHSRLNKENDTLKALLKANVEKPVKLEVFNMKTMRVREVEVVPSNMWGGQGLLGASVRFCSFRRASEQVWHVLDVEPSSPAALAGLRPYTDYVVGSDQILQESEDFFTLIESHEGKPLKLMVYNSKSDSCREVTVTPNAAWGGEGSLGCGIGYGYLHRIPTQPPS

| Binder | pKd |
| --- | --- |
| B1 | below the threshold |

target: IL16_3, Q14005; assay: holdup assay; set-up: key: below the threshold = too weak to quantify, mostly under pKd 3.1 to 4; conditions: plain residues with an end cap or a label only (N-terminal biotin on a linker: ado-ado)
Sequence (Q14005 1107-1207): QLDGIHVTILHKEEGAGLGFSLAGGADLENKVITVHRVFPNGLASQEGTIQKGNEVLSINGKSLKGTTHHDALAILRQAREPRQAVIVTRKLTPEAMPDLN

| Binder | pKd |
| --- | --- |
| B1 | below the threshold |

target: T2, LNX2_2, Q8N448; assay: holdup assay; set-up: key: below the threshold = too weak to quantify, mostly under pKd 3.1 to 4; conditions: plain residues with an end cap or a label only (N-terminal biotin on a linker: ado-ado)

| Binder | pKd |
| --- | --- |
| B1 | 4.05 |

target: TJP1_2, Q07157; assay: holdup assay; set-up: key: below the threshold = too weak to quantify, mostly under pKd 3.1 to 4; conditions: plain residues with an end cap or a label only (N-terminal biotin on a linker: ado-ado)
Sequence (Q07157 181-274): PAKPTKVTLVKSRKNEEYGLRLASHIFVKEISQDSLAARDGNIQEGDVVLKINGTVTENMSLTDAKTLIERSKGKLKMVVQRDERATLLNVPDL

| Binder | pKd |
| --- | --- |
| B1 | below the threshold |

target: LAP2, Q96RT1; assay: holdup assay; set-up: key: below the threshold = too weak to quantify, mostly under pKd 3.1 to 4; conditions: plain residues with an end cap or a label only (N-terminal biotin on a linker: ado-ado)
Sequence (Q96RT1 other isoform, or with tags, fused parts or gaps): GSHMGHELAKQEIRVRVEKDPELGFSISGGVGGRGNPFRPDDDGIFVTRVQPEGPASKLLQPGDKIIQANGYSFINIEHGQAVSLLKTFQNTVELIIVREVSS

| Binder | pKd |
| --- | --- |
| B1 | 3.72 |

target: GRASP, Q7Z6J2; assay: holdup assay; set-up: key: below the threshold = too weak to quantify, mostly under pKd 3.1 to 4; conditions: plain residues with an end cap or a label only (N-terminal biotin on a linker: ado-ado)
Sequence (Q7Z6J2 96-193): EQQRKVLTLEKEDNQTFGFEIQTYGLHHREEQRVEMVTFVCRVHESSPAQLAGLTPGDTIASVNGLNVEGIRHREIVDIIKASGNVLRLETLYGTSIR

| Binder | pKd |
| --- | --- |
| B1 | 4.51 |

target: GRIP2_7, Q9C0E4; assay: holdup assay; set-up: key: below the threshold = too weak to quantify, mostly under pKd 3.1 to 4; conditions: plain residues with an end cap or a label only (N-terminal biotin on a linker: ado-ado)
Sequence (Q9C0E4 934-1023): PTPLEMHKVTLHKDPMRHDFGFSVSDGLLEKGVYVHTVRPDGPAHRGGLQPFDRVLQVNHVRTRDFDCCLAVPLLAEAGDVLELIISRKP

| Binder | pKd |
| --- | --- |
| B1 | below the threshold |

target: T3, HTRA4, P83105; assay: holdup assay; set-up: key: below the threshold = too weak to quantify, mostly under pKd 3.1 to 4; conditions: plain residues with an end cap or a label only (N-terminal biotin on a linker: ado-ado)

| Binder | pKd |
| --- | --- |
| B1 | below the threshold |

target: Inadl_4, Q8NI35; assay: holdup assay; set-up: key: below the threshold = too weak to quantify, mostly under pKd 3.1 to 4; conditions: plain residues with an end cap or a label only (N-terminal biotin on a linker: ado-ado)
Sequence (Q8NI35 547-651): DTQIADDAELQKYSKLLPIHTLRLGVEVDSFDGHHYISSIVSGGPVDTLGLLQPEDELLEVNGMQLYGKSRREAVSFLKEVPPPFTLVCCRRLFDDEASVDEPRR

| Binder | pKd |
| --- | --- |
| B1 | below the threshold |

target: LNX1_1, Q8TBB1; assay: holdup assay; set-up: key: below the threshold = too weak to quantify, mostly under pKd 3.1 to 4; conditions: plain residues with an end cap or a label only (N-terminal biotin on a linker: ado-ado)
Sequence (Q8TBB1 261-371): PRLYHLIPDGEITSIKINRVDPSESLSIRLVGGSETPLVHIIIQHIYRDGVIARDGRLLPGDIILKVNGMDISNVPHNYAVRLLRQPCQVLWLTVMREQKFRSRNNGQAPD

| Binder | pKd |
| --- | --- |
| B1 | below the threshold |

target: FRMPD4, Q14CM0; assay: holdup assay; set-up: key: below the threshold = too weak to quantify, mostly under pKd 3.1 to 4; conditions: plain residues with an end cap or a label only (N-terminal biotin on a linker: ado-ado)
Sequence (Q14CM0 67-160): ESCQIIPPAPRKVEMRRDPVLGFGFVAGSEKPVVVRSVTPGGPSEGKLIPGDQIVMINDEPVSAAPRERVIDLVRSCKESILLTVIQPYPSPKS

| Binder | pKd |
| --- | --- |
| B1 | below the threshold |

target: DLG1_2, Q12959; assay: holdup assay; set-up: key: below the threshold = too weak to quantify, mostly under pKd 3.1 to 4; conditions: plain residues with an end cap or a label only (N-terminal biotin on a linker: ado-ado)
Sequence (Q12959 314-412): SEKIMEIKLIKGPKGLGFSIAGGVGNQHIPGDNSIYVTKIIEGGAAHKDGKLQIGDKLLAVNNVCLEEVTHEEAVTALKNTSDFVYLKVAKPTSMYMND

| Binder | pKd |
| --- | --- |
| B1 | 3.99 |

target: T4, ARHGAP21, Q5T5U3; assay: holdup assay; set-up: key: below the threshold = too weak to quantify, mostly under pKd 3.1 to 4; conditions: plain residues with an end cap or a label only (N-terminal biotin on a linker: ado-ado)

| Binder | pKd |
| --- | --- |
| B1 | below the threshold |

target: MAGI2_5, Q86UL8; assay: holdup assay; set-up: key: below the threshold = too weak to quantify, mostly under pKd 3.1 to 4; conditions: plain residues with an end cap or a label only (N-terminal biotin on a linker: ado-ado)
Sequence (Q86UL8 915-1017): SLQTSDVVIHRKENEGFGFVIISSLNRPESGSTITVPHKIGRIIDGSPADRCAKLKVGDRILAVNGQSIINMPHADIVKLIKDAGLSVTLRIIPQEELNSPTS

| Binder | pKd |
| --- | --- |
| B1 | 3.48 |

target: PDLIM1, O00151; assay: holdup assay; set-up: key: below the threshold = too weak to quantify, mostly under pKd 3.1 to 4; conditions: plain residues with an end cap or a label only (N-terminal biotin on a linker: ado-ado)
Sequence (O00151 1-87): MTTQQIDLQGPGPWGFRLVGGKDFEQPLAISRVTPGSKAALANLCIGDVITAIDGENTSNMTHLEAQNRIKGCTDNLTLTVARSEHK

| Binder | pKd |
| --- | --- |
| B1 | below the threshold |

target: DLG4_2, P78352; assay: holdup assay; set-up: key: below the threshold = too weak to quantify, mostly under pKd 3.1 to 4; conditions: plain residues with an end cap or a label only (N-terminal biotin on a linker: ado-ado)
Sequence (P78352 155-259): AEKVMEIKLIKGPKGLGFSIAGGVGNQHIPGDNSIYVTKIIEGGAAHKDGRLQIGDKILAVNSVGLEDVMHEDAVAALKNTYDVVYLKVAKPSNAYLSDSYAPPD

| Binder | pKd |
| --- | --- |
| B1 | 3.88 |

target: MAGI2_2, Q86UL8; assay: holdup assay; set-up: key: below the threshold = too weak to quantify, mostly under pKd 3.1 to 4; conditions: plain residues with an end cap or a label only (N-terminal biotin on a linker: ado-ado)
Sequence (Q86UL8 410-522): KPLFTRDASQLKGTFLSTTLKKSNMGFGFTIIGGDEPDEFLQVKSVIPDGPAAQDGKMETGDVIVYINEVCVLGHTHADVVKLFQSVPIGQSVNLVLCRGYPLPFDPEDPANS

| Binder | pKd |
| --- | --- |
| B1 | 3.89 |

target: IL16_4, Q14005; assay: holdup assay; set-up: key: below the threshold = too weak to quantify, mostly under pKd 3.1 to 4; conditions: plain residues with an end cap or a label only (N-terminal biotin on a linker: ado-ado)
Sequence (Q14005 1229-1329): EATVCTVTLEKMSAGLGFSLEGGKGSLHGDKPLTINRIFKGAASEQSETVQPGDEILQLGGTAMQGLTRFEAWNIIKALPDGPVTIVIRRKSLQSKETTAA

| Binder | pKd |
| --- | --- |
| B1 | below the threshold |

target: T5, APBA2_2, Q99767; assay: holdup assay; set-up: key: below the threshold = too weak to quantify, mostly under pKd 3.1 to 4; conditions: plain residues with an end cap or a label only (N-terminal biotin on a linker: ado-ado)

| Binder | pKd |
| --- | --- |
| B1 | below the threshold |

target: DLG2_3, Q15700; assay: holdup assay; set-up: key: below the threshold = too weak to quantify, mostly under pKd 3.1 to 4; conditions: plain residues with an end cap or a label only (N-terminal biotin on a linker: ado-ado)

| Binder | pKd |
| --- | --- |
| B1 | 4 |

target: DLG4_1, P78352; assay: holdup assay; set-up: key: below the threshold = too weak to quantify, mostly under pKd 3.1 to 4; conditions: plain residues with an end cap or a label only (N-terminal biotin on a linker: ado-ado)
Sequence (P78352 62-152): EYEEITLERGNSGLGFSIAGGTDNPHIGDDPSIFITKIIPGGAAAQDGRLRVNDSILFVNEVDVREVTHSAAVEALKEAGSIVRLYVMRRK

| Binder | pKd |
| --- | --- |
| B1 | 3.84 |

target: T6, LIN7C, Q9NUP9; assay: holdup assay; set-up: key: below the threshold = too weak to quantify, mostly under pKd 3.1 to 4; conditions: plain residues with an end cap or a label only (N-terminal biotin on a linker: ado-ado)

| Binder | pKd |
| --- | --- |
| B1 | below the threshold |
